± gives the standard error. This sample holds only a part of the variants without activity.
B1: glmS ribozyme (parent)
chain: AUAAAAGCGCCAGAACUACAGAAAUGUAGUUGACGAGGAGGAGGUUUAUCGAAUUUUCGGCGGAUGCCUCCAAA

How the values were obtained:
Conditions in all cases: with glucosamine-6-phosphate
glucosamine-6-phosphate [1] = variants of: B1; assay: self-cleavage kobs at 640 uM GlcN6P; higher = faster cleavage; RNA array
Procedure, shortened: (§1)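 E. coli RNA polymerase transcribed barcoded ribozyme variants in situ on sequenced MiSeq chips, which were tracked via a hybridised Cy3 probe at 37 °C. Tiles were imaged over ~14 h after glucosamine-6-phosphate (40 μM to 10 mM) in HEPES/KCl/Mg(OAc)2 buffer was flowed in. Normalised per-tile medians were fit to one- or two-exponential decays for kobs, and kcat and KM came from weighted Michaelis–Menten fits.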

glucosamine-6-phosphate [2] = variants of: B1; assay: self-cleavage kobs at 2500 uM GlcN6P; higher = faster cleavage; RNA array
Procedure, shortened: as §1

glucosamine-6-phosphate [3] = variants of: B1; assay: self-cleavage kobs at 10000 uM GlcN6P; higher = faster cleavage; RNA array
Procedure, shortened: as §1

Row | Variant | self-cleavage kobs at 640 uM GlcN6P (glucosamine-6-phosphate [1]) [s⁻¹] | self-cleavage kobs at 2500 uM GlcN6P (glucosamine-6-phosphate [2]) [s⁻¹] | self-cleavage kobs at 10000 uM GlcN6P (glucosamine-6-phosphate [3]) [s⁻¹]
1 | C10U A52C G66A | < 1e-05 | < 1e-05 | 
2 | G7U U30C C61A | < 1e-05 |  | 
3 | G9U U46G C58G | < 1e-05 | < 1e-05 | 
4 | A6G G41C A42C | < 1e-05 | < 1e-05 | 
5 | A6U G9C A52U C67A C70U | < 1e-05 |  | 
6 | G9C C34U U49C U65G | < 1e-05 |  | 
7 | C11U A15U C70G | 0.000134 ± 4.8e-05 |  | 
8 | C8U G13U A14U | < 1e-05 |  | 
9 | C11U U55G C70A | 8.31e-05 ± 3.3e-05 | 0.000101 ± 2.5e-05 | 
10 | A12G G63A A64C | < 1e-05 |  | 
11 | G9U C11G G41U | < 1e-05 |  | 
12 | C10G A14G U31A C34U G51C A53U U54C G66U | < 1e-05 |  | 
13 | G13A A42C G51C C61A | < 1e-05 | < 1e-05 | 
14 | C8G A42C U47A | < 1e-05 | < 1e-05 | 
15 | C11G G13A C70G | 0.000406 ± 0.00015 | 6.69e-05 ± 3.1e-05 | 
16 | C8U A14U U57C G59U | < 1e-05 |  | 
17 | C10A C61G A64G C68G | 9.09e-05 ± 4.3e-05 |  | 
18 | A14C C16A G43U C68U | < 1e-05 | < 1e-05 | 
19 | C11U A15C U31C | 6.01e-05 ± 2.1e-05 | 0.000159 ± 5e-05 | 
20 | G7C A48C C70A | < 1e-05 |  | 
21 | A12G C34G U47C | < 1e-05 |  | 
22 | G7A C10U G29A U30G | < 1e-05 |  | 
23 | A14C U49G U54G C68G | 7.91e-05 ± 3.6e-05 |  | 
24 | A6G G38A C68G | < 1e-05 |  | 

Row | Variant | self-cleavage kobs at 640 uM GlcN6P (glucosamine-6-phosphate [1]) [s⁻¹] | self-cleavage kobs at 2500 uM GlcN6P (glucosamine-6-phosphate [2]) [s⁻¹] | self-cleavage kobs at 10000 uM GlcN6P (glucosamine-6-phosphate [3]) [s⁻¹]
25 | G9A U30G A39U | < 1e-05 |  | 
26 | C8A C16A G32C A42G | < 1e-05 |  | 
27 | A12U G32C G35C A42U | < 1e-05 |  | 
28 | G13U G32A C70A | 5.59e-05 ± 2.4e-05 | 0.000106 ± 3.2e-05 | 
29 | A12C U54G C68G | 4.37e-05 ± 1.2e-05 | 5.51e-05 ± 1.5e-05 | 
30 | G13U G63A C71U | < 1e-05 | < 1e-05 | 
31 | G9A C10G G29U G62A | < 1e-05 |  | 
32 | A6U C8U A15U G32C C34A C61G | < 1e-05 |  | 
33 | C11A A14G G43A U45G | 4.76e-05 ± 2e-05 |  | 
34 | G7A G43U U49G G63C A64U | < 1e-05 | < 1e-05 | 
35 | G7A G9C A33U G66C | < 1e-05 | < 1e-05 | 
36 | G7A C16G A48U G60C C70A | < 1e-05 | < 1e-05 | 
37 | G13U G35U C50U G66C | < 1e-05 |  | 
38 | A12G C58G C71U | 9.42e-05 ± 1.7e-05 | 3.81e-05 ± 1.2e-05 | 
39 | A6G G40A U54G C67A | < 1e-05 | < 1e-05 | 
40 | G9C A33U C34G U56A | < 1e-05 |  | 
41 | A6G U31G U45A A53G C61A G66C | < 1e-05 |  | 
42 | G9U C11U U30G | < 1e-05 |  | 
43 | A14C G40U A52U | < 1e-05 |  | 
44 | G9U C10G A15G G38U A39G A52U | < 1e-05 | < 1e-05 | < 1e-05
45 | G13U A15C C58G | 0.00154 ± 0.00048 | 7.7e-05 ± 2.3e-05 | 8.16e-05 ± 1.4e-05
46 | A6G G9A A39C A42U U46A A53U C68U C71G | < 1e-05 |  | 
47 | G13U G29A A33U | < 1e-05 |  | 
48 | A14C C16A C71G | 6.58e-05 ± 2.7e-05 | 4.2e-05 ± 2.1e-05 | 

Row | Variant | self-cleavage kobs at 640 uM GlcN6P (glucosamine-6-phosphate [1]) [s⁻¹] | self-cleavage kobs at 2500 uM GlcN6P (glucosamine-6-phosphate [2]) [s⁻¹] | self-cleavage kobs at 10000 uM GlcN6P (glucosamine-6-phosphate [3]) [s⁻¹]
49 | C11A A48U C70A | 9.74e-05 ± 2.9e-05 |  | 
50 | G7C A12G U46G U47A | < 1e-05 |  | 
51 | C8U G62A C70U | 6.07e-05 ± 2.6e-05 |  | 
52 | A14C U56G U57A C71A | 8.95e-05 ± 2.3e-05 | 5.04e-05 ± 2e-05 | 
53 | G13C U56A C58G C71U | 3.8e-05 ± 1.2e-05 | 6.28e-05 ± 1.9e-05 | 
54 | C8A C50G C58G G62A | 0.000111 ± 3.2e-05 | 0.000345 ± 8.6e-05 | 
55 | G7U A15C A39C | < 1e-05 |  | 
56 | G9C A15G G38C G60A | < 1e-05 | < 1e-05 | 
57 | A14C A33C C67G | < 1e-05 |  | 
58 | G13A C50U G62A | < 1e-05 |  | 
59 | C11G A48G C71U | < 1e-05 | < 1e-05 | 
60 | C10U A14U C16G U45G | < 1e-05 |  | 
61 | A6U G13A C71A | < 1e-05 |  | 
62 | A12C U54C C71U | 0.00422 ± 0.0017 | 0.0234 ± 0.0081 | 
63 | C11U U30C C71A | 0.000112 ± 2.4e-05 | 6.85e-05 ± 2.1e-05 | 
64 | G13C U57C C58A | < 1e-05 |  | 
65 | G7U A53U A64G | < 1e-05 | < 1e-05 | 
66 | C10G G44C | < 1e-05 | < 1e-05 | 
67 | A12U G37A U56G | 0.00137 ± 0.00022 | 0.00379 ± 0.00089 | 
68 | G7A A53C C68U | < 1e-05 | < 1e-05 | 
69 | C8G A33C U55G G62U C67A | < 1e-05 | < 1e-05 | 
70 | A14C G40A G60U | < 1e-05 | < 1e-05 | 

— the supplement of paper PMC7125110
